Residue numbers refer to the chain shown, from its start.

The source of these data is patent publication US20180258181A1.

To fix the notation:
B1: MOR06626 IgG (antibody, V domains shown)
VH: QVQLVQSGAEVKKPGASVKVSCKASGYTFTGNYINWVRQAPGQGLEWMGIINPTKGWTLYAQKFQGRVTMTRDTSISTAYMELSSLRSEDTAVYYCARWHHGTWIFDYWGQGTLVTVSS
VL: DIVLTQPPSVSGAPGQRVTISCSGSSSNIGSNYVSWYQQLPGTAPKLLIYNDNQRPSGVPDRFSGSKSGTSASLAITGLQSEDEADYYCSTYDRRTFSVFGGGTKLTVLG
B2: MOR06657 IgG (antibody, V domains shown)
VH: QVQLVQSGAEVKKPGSSVKVSCKASGGTFSSYYFSWVRQAPGQGLEWMGGIIPKFGSANYAQKFQGRVTITADESTSTAYMELSSLRSEDTAVYYCARRTSMDYWGQGTLVTVSS
VL: DIALTQPASVSGSPGQSITISCTGTSSDVGGYNYVSWYQQHPGKAPKLMIYSVSKRPSGVSNRFSGSKSGNTASLTISGLQAEDEADYYCATWDHSQMGKVFGGGTKLTVLG
B3: MOR06631 IgG (antibody, V domains shown)
VH: QVQLVQSGAEVKKPGESLKISCKGSGYSFTNYWIGWVRQMPGKGLEWMGFIWPVDSWTQYSPSFQGQVTISADKSISTAYLQWSSLKASDTAMYYCARYGHGMYGGALDVWGQGTLVTVSS
VL: DIVLTQSPATLSLSPGERATLSCRASQSVRSSRLAWYQQKPGQAPRLLIYGASKRATGVPARFSGSGSGTDFTLTISSLEPEDFATYYCQQYYDFPPTFGQGTKVEIKR
B4: MOR07111 IgG (antibody, V domains shown)
VH: B3 VH with F50V, W52M, V54S, W57Y, Q59R
VL: B3 VL with T86V, Y92F, D94S, F95K, P97I
B5: MOR06669 IgG (antibody, V domains shown)
VH: B3 VH with F50I, V54I, W57F
VL: B3 VL
B6: MOR06638 IgG (antibody, V domains shown)
VH: B1 VH with T54H, K55G, W57D, L59K
VL: DIVLTQPPSVSGAPGQRVTISCSGSSSNIGSNYVSWYQQLPGTAPKLLIYNDNQRPSGVPDRFSGSKSGTSASLAITGLQSEDEADYYCSSWDRADGSYVFGGGTKLTVLG

The first test concerns the target mesothelin on OVCAR-3 cells (UniProt Q13421). Description: FACS titration, IgG on OVCAR-3 cells.
B1: the EC50 – broadly, the concentration needed to bring the measured effect to its halfway point – was 9.68 nM.
Still for that read-out and setting: next, B2: 0.53 nM.

The next test shares this target. Description: FACS titration, EC50 on OVCAR-3 against EC50 on NCI-H226.
For B3, the x-fold different EC50 on OVCAR-3 vs. NCI-H226 stood at 0.5 fold.
The same measure, in the same setting: the result for B4 reads 1.7 fold; that for B5, 3.4 fold; that for B1, 22 fold.
On the same count and under the same terms, the result for B6 reads 22.1 fold; that for B2, 14 fold.
